Assay results as given in the supplement of paper PMC10567573.

B1: LOXL2 (parent)
chain: HISSCKLGPQVSLDPMKNVTCENG
B2: PLAGL1 (parent)
chain: LELGSTEVLLDHLKAHAEEKPPSG

Variants of: B1
Assay: protein stability index of a GFP-peptide fusion (GPS, HEK-293T) (PSI 1-6); higher = more stable
Settings: c terminus: a fixed tail appended
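Note: lentivirally expressed fusions sorted by FACS into six bins by GFP to DsRed ratio, PSI derived from sequencing read proportions per bin multiplied by bin number.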

Variant	protein stability index
GISSCKLGPQVSLDPMKNVTCENG [H1G]	4.46
KISSCKLGPQVSLDPMKNVTCENG [H1K]	4.22
DISSCKLGPQVSLDPMKNVTCENG [H1D]	4.33
FISSCKLGPQVSLDPMKNVTCENG [H1F]	2.01
NISSCKLGPQVSLDPMKNVTCENG [H1N]	4.52
PISSCKLGPQVSLDPMKNVTCENG [H1P]	4.33
MISSCKLGPQVSLDPMKNVTCENG [H1M]	3.95
EISSCKLGPQVSLDPMKNVTCENG [H1E]	3.96
LISSCKLGPQVSLDPMKNVTCENG [H1L]	3.29
IISSCKLGPQVSLDPMKNVTCENG [H1I]	2.63
AISSCKLGPQVSLDPMKNVTCENG [H1A]	3.87
CISSCKLGPQVSLDPMKNVTCENG [H1C]	3.73

Variants of: B2
Assay: as above
Settings: c terminus: a fixed tail appended

Variant	protein stability index
LELGSTEVLLDHLKAHAEESPPSG [K20S]	4.21
LELGSTEVLLDHLKAHAEEYPPSG [K20Y]	3.6
LELGSTEVLLDHLKAHAEEWPPSG [K20W]	4.06
LELGSTEVLLDHLKAHAEETPPSG [K20T]	4.86
LELGSTEVLLDHLKAHAEERPPSG [K20R]	4.26
LELGSTEVLLDHLKAHAEEVPPSG [K20V]	4.41
LELGSTEVLLDHLKAHAEEKRPSG [P21R]	4.47
LELGSTEVLLDHLKAHAEEKIPSG [P21I]	4.22
LELGSTEVLLDHLKAHAEEKLPSG [P21L]	3.6
LELGSTEVLLDHLKAHAEEKYPSG [P21Y]	3.39
LELGSTEVLLDHLKAHAEEKDPSG [P21D]	4.92
LELGSTEVLLDHLKAHAEEKKPSG [P21K]	5.04
LELGSTEVLLDHLKAHAEEKHPSG [P21H]	4.57
LELGSTEVLLDHLKAHAEEKTPSG [P21T]	4.56
LELGSTEVLLDHLKAHAEEKAPSG [P21A]	4.8
LELGSTEVLLDHLKAHAEEKCPSG [P21C]	3.55
LELGSTEVLLDHLKAHAEEKGPSG [P21G]	4.45
LELGSTEVLLDHLKAHAEEKVPSG [P21V]	4.41
LELGSTEVLLDHLKAHAEEKEPSG [P21E]	5.38
LELGSTEVLLDHLKAHAEEKMPSG [P21M]	4.4
LELGSTEVLLDHLKAHAEEKSPSG [P21S]	4.53

Variant	protein stability index
LELGSTEVLLDHLKAHAEEKFPSG [P21F]	3.72
LELGSTEVLLDHLKAHAEEKWPSG [P21W]	3.53
LELGSTEVLLDHLKAHAEEKQPSG [P21Q]	4.84
LELGSTEVLLDHLKAHAEEKNPSG [P21N]	4.85
LELGSTEVLLDHLKAHAEEKPPAG [S23A]	3.76
LELGSTEVLLDHLKAHAEEKPPKG [S23K]	4.28
LELGSTEVLLDHLKAHAEEKPPYG [S23Y]	3.79
LELGSTEVLLDHLKAHAEEKPPIG [S23I]	4.1
LELGSTEVLLDHLKAHAEEKPPNG [S23N]	4.47
LELGSTEVLLDHLKAHAEEKPPHG [S23H]	4.17
LELGSTEVLLDHLKAHAEEKPPGG [S23G]	4.43
LELGSTEVLLDHLKAHAEEKPPMG [S23M]	4.15
LELGSTEVLLDHLKAHAEEKPPQG [S23Q]	4.71
LELGSTEVLLDHLKAHAEEKPPCG [S23C]	4.35
LELGSTEVLLDHLKAHAEEKPPVG [S23V]	4.34
LELGSTEVLLDHLKAHAEEKPPRG [S23R]	4.4
LELGSTEVLLDHLKAHAEEKPPDG [S23D]	5.1
LELGSTEVLLDHLKAHAEEKPPLG [S23L]	4.22
LELGSTEVLLDHLKAHAEEKPPWG [S23W]	3.22
LELGSTEVLLDHLKAHAEEKPPFG [S23F]	3.72
LELGSTEVLLDHLKAHAEEKPPEG [S23E]	4.89

Variant	protein stability index
LELGSTEVLLDHLKAHAEEKPPPG [S23P]	4.5
LELGSTEVLLDHLKAHAEEKPPTG [S23T]	4.17
LELGSTEVLLDHLKAHAEEKPSSG [P22S]	4.79
LELGSTEVLLDHLKAHAEEKPGSG [P22G]	4.4
LELGSTEVLLDHLKAHAEEKPTSG [P22T]	4.88
LELGSTEVLLDHLKAHAEEKPVSG [P22V]	3.81
LELGSTEVLLDHLKAHAEEKPESG [P22E]	5.08
LELGSTEVLLDHLKAHAEEKPLSG [P22L]	3.9
LELGSTEVLLDHLKAHAEEKPYSG [P22Y]	3.9
LELGSTEVLLDHLKAHAEEKPMSG [P22M]	3.85
LELGSTEVLLDHLKAHAEEKPQSG [P22Q]	4.85
LELGSTEVLLDHLKAHAEEKPFSG [P22F]	3.35
LELGSTEVLLDHLKAHAEEKPWSG [P22W]	3.38
LELGSTEVLLDHLKAHAEEKPKSG [P22K]	4.25
LELGSTEVLLDHLKAHAEEKPNSG [P22N]	4.95
LELGSTEVLLDHLKAHAEEKPDSG [P22D]	4.88
LELGSTEVLLDHLKAHAEEKPHSG [P22H]	4.03
LELGSTEVLLDHLKAHAEEKPISG [P22I]	4.06
LELGSTEVLLDHLKAHAEEKPCSG [P22C]	4.58
LELGSTEVLLDHLKAHAEEKPASG [P22A]	4.49
LELGSTEVLLDHLKAHAEEKPRSG [P22R]	4.1

Variant	protein stability index
LELGSTEVLLDHLKAHAEEKPPSY [G24Y]	3.7
LELGSTEVLLDHLKAHAEEKPPSL [G24L]	3.51
LELGSTEVLLDHLKAHAEEKPPST [G24T]	4.18
LELGSTEVLLDHLKAHAEEKPPSS [G24S]	4.46
LELGSTEVLLDHLKAHAEEKPPSR [G24R]	4.21
LELGSTEVLLDHLKAHAEEKPPSD [G24D]	4.91
LELGSTEVLLDHLKAHAEEKPPSC [G24C]	3.97
LELGSTEVLLDHLKAHAEEKPPSA [G24A]	4.66
LELGSTEVLLDHLKAHAEEKPPSE [G24E]	4.68
LELGSTEVLLDHLKAHAEEKPPSH [G24H]	4.47
LELGSTEVLLDHLKAHAEEKPPSW [G24W]	3.23
LELGSTEVLLDHLKAHAEEKPPSM [G24M]	3.61
LELGSTEVLLDHLKAHAEEKPPSI [G24I]	4.07
LELGSTEVLLDHLKAHAEEKPPSF [G24F]	3.21
LELGSTEVLLDHLKAHAEEKPPSV [G24V]	3.88
LELGSTEVLLDHLKAHAEEKPPSK [G24K]	4.34
LELGSTEVLLDHLKAHAEEKPPSP [G24P]	4.9
LELGSTEVLLDHLKAHAEEKPPSN [G24N]	4.54
LELGSTEVLLDHLKAHAEEKPPSQ [G24Q]	4.63
